Data set [1] concerns the target T1, IgG1 Fc (counter target) (Homo sapiens, UniProt P01857-1 P01857-1:100-330). In words: SPR; no interaction observed. As to conditions: tags: AcroBiosystems; chain copies: 2; label: 5'-biotin-TEG. Here is the method:
(§1) Binding affinity measurements were performed using a BIAcore T200 instrument (GE Healthcare). To analyze interactions between aptamers and CD3 proteins, 1000 Resonance Units of biotinylated aptamers were immobilized on Series S Sensor chips SA (GE Healthcare) according to manufacturer's instructions (GE Healthcare). SELEX buffer was used as the running buffer. The interactions were measured in the “Single Kinetics Cycle” mode at a flow rate of 30 μl/min and by injecting different concentrations of human CD3 ε/γ, CD3 ε/δ, IgG1 Fc and mouse CD3 ε/δ (Sino Biological). The highest protein concentration used was 100 nM. Other concentrations were obtained by 3-fold dilution. All kinetic data of the interaction were evaluated using the BIAcore T200 evaluation software. Table 3 below provides a summary of KD values obtained from surface plasmon resonance measurements.
(Surface plasmon resonance follows binding to a sensor surface in real time, without labels.)

In data set [2] the target is T2, CD3 epsilon/delta heterodimer (Homo sapiens, UniProt P07766;P04234 P07766:23-126,P04234:22-105). Put plainly: SPR; steady state; kinetic 8.2 nM (Table 6), 900 pM (Table 8). As to conditions: tags: C-terminal human IgG1 Fc fusion, AcroBiosystems; chain copies: heterodimer 1:1 (inferred); label: 5'-biotin-TEG. Here is the method: as §1
T2 sequence (P07766 23-126, stated change not applied, chain 1 of 2): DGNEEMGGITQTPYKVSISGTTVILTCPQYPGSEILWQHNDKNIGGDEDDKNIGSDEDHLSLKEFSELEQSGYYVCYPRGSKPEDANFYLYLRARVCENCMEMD
T2 sequence (P04234 22-105, stated change not applied, chain 2 of 2): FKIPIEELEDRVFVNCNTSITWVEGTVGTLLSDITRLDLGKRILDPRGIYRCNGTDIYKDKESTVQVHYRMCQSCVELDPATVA
Data set [3] addresses T3, CD3 epsilon/gamma heterodimer (Homo sapiens, UniProt P07766;P09693 P07766:23-126,P09693:23-116). In words: SPR; steady state; kinetic 9.5 pM (Table 6), 304 pM (Table 8); 99 nM steady state (Table 9). The settings on record: tags: C-terminal human IgG1 Fc fusion, AcroBiosystems; chain copies: heterodimer 1:1 (inferred); label: 5'-biotin-TEG.
Data set [4] deals with T3, CD3 epsilon/gamma heterodimer. In words: SPR; steady state; kinetic 0.2 pM (Table 8). The settings on record: tags: C-terminal human IgG1 Fc fusion, AcroBiosystems; chain copies: heterodimer 1:1 (inferred); label: biotin; G4 predicted. Here is the method:
(§2) Binding affinity measurements with the most interesting anti-CD3 aptamers derived from the core sequence were performed using a BIAcore T200 instrument (GE Healthcare) as already described in Example 4. To analyze interactions between aptamers and CD3 proteins, biotinylated aptamers were immobilized at a lower density than in Example 4 (100-500 RU) on Series S Sensor chips SA (GE Healthcare) according to manufacturer's instructions (GE Healthcare). Mouse and Cynomolgus CD3 ε/δ were purchased from AcroBiosystems. For human proteins, the highest concentration used was 100 nM and 1 μM for mouse and cynomolgus antigens. Other concentrations were obtained by 3-fold dilutions.
Table 9 below provides a summary of KD values obtained from surface plasmon resonance measurements performed with human CD3 ε/γ and mouse and cynomolgus CD3 ε/δ. […] In these conditions, 3′-3′ deoxy-thymidine-modified versions of the latest four aptamers performed equally well. All these sequenced-optimized aptamers were able to bind the murine and cynomolgus CD3 ε/δ isoforms confirming the cross-specificity of the CD3 aptamers already observed in Examples 3 and 5.

The target in data set [5] is T2, CD3 epsilon/delta heterodimer. In words: SPR; kinetic. As to conditions: tags: C-terminal human IgG1 Fc fusion, AcroBiosystems; chain copies: heterodimer 1:1 (inferred); label: biotin; G4 predicted. As to the method:
as §2
(§3) Table 8 below provides a summary of KD values obtained from surface plasmon resonance measurements. […] Variants of the core sequence identified in cell binding assays (CELTIC_core_12, CELTIC_core_24, CELTIC_core_29, CELTIC_core_40 and CELTIC_core_42) were all confirmed to have better affinities than the unmodified aptamer with human CD3 ε/γ. As already observed in Example 4, the affinities were in general slightly lower with CD3 ε/δ which is a consequence of the SELEX strategy that included more rounds on the CD3 ε/γ isoform. None of these sequences did bind to the Fc region of human IgG1.

Data set [6] concerns the target T1, IgG1 Fc (counter target). In words: SPR; NA. The settings on record: tags: AcroBiosystems; chain copies: 2; label: biotin; G4 predicted. As to the method:
as §2, §3

Data set [7] deals with T3, CD3 epsilon/gamma heterodimer. Put plainly: SPR; steady state; kinetic 4.1 nM (Table 6). As to conditions: tags: C-terminal human IgG1 Fc fusion, AcroBiosystems; chain copies: heterodimer 1:1 (inferred); label: 5'-biotin-TEG. Here is the method: as §1
Data set [8] deals with T2, CD3 epsilon/delta heterodimer. In words: SPR; steady state; kinetic 3.4 nM (Table 6). The settings on record: tags: C-terminal human IgG1 Fc fusion, AcroBiosystems; chain copies: heterodimer 1:1 (inferred); label: 5'-biotin-TEG. As to the method: as §1
Data set [9] shares this target. Put plainly: SPR; same value in Table 3. The settings on record: tags: C-terminal human IgG1 Fc fusion, AcroBiosystems; chain copies: heterodimer 1:1 (inferred); label: 5'-biotin-TEG. Here is the method: as §1
(§4) Further, it was observed that compared to the aptamer CELTIC_1 (CD3-1 in Table 1), CELTIC_1s (CD3-1s) bound to the CD3 proteins more strongly. Table 4 below provides a summary of KD values obtained from another set of surface plasmon resonance measurements. It includes KD values of the first five aptamers with and without flanking regions.

In data set [10] the target is T3, CD3 epsilon/gamma heterodimer. Put plainly: SPR; same value in Table 3. The settings on record: tags: C-terminal human IgG1 Fc fusion, AcroBiosystems; chain copies: heterodimer 1:1 (inferred); label: 5'-biotin-TEG. As to the method: as §1, §4
Data set [11] addresses T2, CD3 epsilon/delta heterodimer. In words: SPR; steady state; kinetic 3.2 nM (Table 6). The settings on record: tags: C-terminal human IgG1 Fc fusion, AcroBiosystems; chain copies: heterodimer 1:1 (inferred); label: 5'-biotin-TEG. Here is the method: as §1
The target in data set [12] is T3, CD3 epsilon/gamma heterodimer. In words: SPR; steady state; kinetic 3.9 nM (Table 6). As to conditions: tags: C-terminal human IgG1 Fc fusion, AcroBiosystems; chain copies: heterodimer 1:1 (inferred); label: 5'-biotin-TEG. Here is the method:
as §1

In data set [13] the target is T2, CD3 epsilon/delta heterodimer. In words: SPR; steady state; kinetic fit suboptimal. The settings on record: tags: C-terminal human IgG1 Fc fusion, AcroBiosystems; chain copies: heterodimer 1:1 (inferred); label: 5'-biotin-TEG. As to the method:
as §1

The target of data set [14] is T3, CD3 epsilon/gamma heterodimer. In words: SPR; steady state; kinetic fit suboptimal. As to conditions: tags: C-terminal human IgG1 Fc fusion, AcroBiosystems; chain copies: heterodimer 1:1 (inferred); label: 5'-biotin-TEG. As to the method:
as §1

Data set [15] has as its target T2, CD3 epsilon/delta heterodimer. Put plainly: SPR; NA. As to conditions: tags: C-terminal human IgG1 Fc fusion, AcroBiosystems; chain copies: heterodimer 1:1 (inferred); label: 5'-biotin-TEG. Here is the method: as §1, §4
Data set [16] deals with T3, CD3 epsilon/gamma heterodimer. In words: SPR; NA. The settings on record: tags: C-terminal human IgG1 Fc fusion, AcroBiosystems; chain copies: heterodimer 1:1 (inferred); label: 5'-biotin-TEG. As to the method: as §1, §4
Data set [17] deals with T1, IgG1 Fc (counter target). Put plainly: SPR; no interaction observed; aptamer also NA for CD3. As to conditions: tags: AcroBiosystems; chain copies: 2; label: 5'-biotin-TEG. As to the method: as §1, §4
Data set [18] has as its target T3, CD3 epsilon/gamma heterodimer. Put plainly: SPR; steady state; 43.6 nM (Table 3); kinetic 2.8 nM (Table 6). The settings on record: tags: C-terminal human IgG1 Fc fusion, AcroBiosystems; chain copies: heterodimer 1:1 (inferred); label: 5'-biotin-TEG. Here is the method:
as §1

Data set [19] deals with T2, CD3 epsilon/delta heterodimer. Put plainly: SPR; steady state; 62.2 nM (Table 3); kinetic 3.4 nM (Table 6). As to conditions: tags: C-terminal human IgG1 Fc fusion, AcroBiosystems; chain copies: heterodimer 1:1 (inferred); label: 5'-biotin-TEG. Here is the method:
as §1

The target is the same in data set [20]. Put plainly: SPR; steady state; kinetic 2.7 nM (Table 6). The settings on record: tags: C-terminal human IgG1 Fc fusion, AcroBiosystems; chain copies: heterodimer 1:1 (inferred); label: 5'-biotin-TEG. As to the method: as §1
The target in data set [21] is T3, CD3 epsilon/gamma heterodimer. Put plainly: SPR; steady state; kinetic 2.3 nM (Table 6). As to conditions: tags: C-terminal human IgG1 Fc fusion, AcroBiosystems; chain copies: heterodimer 1:1 (inferred); label: 5'-biotin-TEG. As to the method: as §1
Data set [22] deals with T2, CD3 epsilon/delta heterodimer. In words: SPR; steady state; kinetic 41.1 nM (Table 6). As to conditions: tags: C-terminal human IgG1 Fc fusion, AcroBiosystems; chain copies: heterodimer 1:1 (inferred); label: 5'-biotin-TEG. Here is the method:
as §1

For data set [23] the target is unchanged. Put plainly: SPR; steady state; kinetic 3.7 nM (Table 6). As to conditions: tags: C-terminal human IgG1 Fc fusion, AcroBiosystems; chain copies: heterodimer 1:1 (inferred); label: 5'-biotin-TEG. Here is the method:
as §1

The target of data set [24] is T3, CD3 epsilon/gamma heterodimer. Put plainly: SPR; steady state; kinetic 3.8 nM (Table 6). The settings on record: tags: C-terminal human IgG1 Fc fusion, AcroBiosystems; chain copies: heterodimer 1:1 (inferred); label: 5'-biotin-TEG. Here is the method: as §1
Data set [25] concerns the target T2, CD3 epsilon/delta heterodimer. In words: SPR; steady state; kinetic 23.3 nM (Table 6). As to conditions: tags: C-terminal human IgG1 Fc fusion, AcroBiosystems; chain copies: heterodimer 1:1 (inferred); label: 5'-biotin-TEG. Here is the method:
as §1

T3 sequence (P07766 23-126, chain 1 of 2): as the sequence (P07766 23-126, stated change not applied, chain 1 of 2) above
T3 sequence (P09693 23-116, chain 2 of 2): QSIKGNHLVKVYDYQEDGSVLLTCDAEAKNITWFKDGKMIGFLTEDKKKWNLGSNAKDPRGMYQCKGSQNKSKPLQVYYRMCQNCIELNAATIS

On to TACCGCGGGGATTGGCTCCGGGCCTGGCGTCGTAATCTGA (ssDNA) [CELTIC_19s], for which the binding result with IgG1 Fc (counter target) [1] was “no binding”. Moreover, the Kd in [2] was 150 nM; in data set [3], 104 nM.

For the molecule GGGTTTGGCATCGGGTCTGGC (ssDNA, 5'-HEG) [CELTIC_core_40], the values for the Kd in [4] and in data set [5] were 129 nM and 0.0052 nM, respectively. Moreover, the binding result in the data set with IgG1 Fc (counter target) [6] is given as “no binding”.

Consider GGAGTGGAGTATTCCGGGTTTGGCATCGGGCCTGGCGAAG (ssDNA) [CELTIC_4s], for which the Kd in data set [7] was found to be 117 nM; in [8] it was 144 nM. Moreover, the binding result with IgG1 Fc (counter target) [1] is reported as “no binding”.

B1: CELTIC_3 (ssDNA)
DNA: TAGGGAAGAGAAGGACATATGATGCGTAAGGGTTTGGCAGCGGGCCTGGCGGAACGCGTGTATTTGACTAGTACATGACCACTTGA
Consider B1, for which the results for the Kd in [9] and in [10] were 86.5 nM and 65.4 nM, respectively.

Take GATGGAGGGTTTGGCGGTGGGCCTGGCAAGTTATCTCATA (ssDNA) [CELTIC_11s]: the binding result in the data set with IgG1 Fc (counter target) [1] is “no binding”. Besides, the equilibrium dissociation constant (Kd) in [11] is 138 nM; in data set [12], 94 nM.

Regarding CGGCAGGGGTTTGGCTCCGGGTCTGGCGAACTGGCTGAGA (ssDNA) [CELTIC_5s], the Kd in data set [13] stood at 120 nM; in [14] it was 182 nM. The binding result with IgG1 Fc (counter target) [1] was “no binding”.

B2: CELTIC_2 (ssDNA)
DNA: TAGGGAAGAGAAGGACATATGATGAGGGGTTTGGCATCGGGCCTGGCGCCATTCAAGCTATGCTTGACTAGTACATGACCACTTGA
On to B2, for which the binding result (in data set [15]; in [16]; with IgG1 Fc (counter target) [17]) was “no binding” throughout.

B3: CELTIC_1 (ssDNA)
DNA: TAGGGAAGAGAAGGACATATGATCCGGGTGGGGGTTTGGCACCGGGCCTGGCGCAGGGATTCGTTGACTAGTACATGACCACTTGA
For B3, the binding result (in data set [15]; in [16]; with IgG1 Fc (counter target) [17]) was “no binding” each time.

In the case of AAGGGATTGGCGTCGGGCCTGGCGTAAGGAGGCTATGCTC (ssDNA) [CELTIC_6s], the Kd was found to be 168 nM in [13] and 287 nM in [14]. Moreover, the binding result with IgG1 Fc (counter target) [1] is “no binding”.

B4: CELTIC_21 (ssDNA)
DNA: TAGGGAAGAGAAGGACATATGATGGTCGGGTGCTACTGAGCGATTGGCTTTCCGGACTGGGGATTGACTAGTACATGACCACTTGA
Turning to B4, the results for the Kd in data set [18] and in data set [19] were 56.4 nM and 49.8 nM, respectively.

With CGACCACAGGGGTTTGGCTTCGGGACTGGCGGTGGGCACT (ssDNA) [CELTIC_22s (printed CELTIC_CD3_22)], the Kd in data set [20] was determined as 164 nM; in [21] it was 162 nM.

As to GCGTAAGGGTTTGGCAGCGGGCCTGGCGGAACGCGTGTAT (ssDNA) [CELTIC_3s], the Kd in data set [14] was 156 nM; in data set [22] it was 409 nM. Moreover, the binding result in the data set with IgG1 Fc (counter target) [1] is “no binding”.

With GCATCGAAATGGGGTTGGCACCGGGCCTGGCGAATTGGAT (ssDNA) [CELTIC_9s], the Kd in data set [23] came to 60.5 nM; in [24], 47.3 nM. The binding result with IgG1 Fc (counter target) [1] is “no binding”.

For the molecule GGTCGGGTGCTACTGAGCGATTGGCTTTCCGGACTGGGGA (ssDNA) [CELTIC_21s], the Kd was 405 nM in data set [25] and 155 nM in [14]. In addition, the binding result with IgG1 Fc (counter target) [1] is on record as “no binding”.

Usually Kd stands for a measure of binding affinity in units of concentration.

Values taken from US20220251562, “Anti-CD3 Aptamers for Use in Cell Targeting and Labeling” (Ixaka France, published 2022).
